Measured values as given in the supplement of paper PMC5998384.

How the values were obtained:
HeLa Kyoto [1] = experiment: solubility change mitosis vs G1/S (difference of NP-40 vs SDS log2 ratios) (log2 ratio difference); higher = more soluble in mitosis
HeLa Kyoto [2] = experiment: thermal stability score vs G1/S (z-score of summed log2 fold changes over temperatures); higher = more thermally stable than in G1/S
HeLa Kyoto [3] = experiment: solubility in G1/S (NP-40 vs SDS abundance) (log2 ratio); higher = more soluble; settings: cell cycle stage: G1/S
HeLa Kyoto [4] = experiment: melting temperature (median over replicates), in situ; higher = more thermally stable
[5] = cell cycle stage: early G1 (4.5 h after nocodazole release)
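Wherever melting temperature (median over replicates), in situ is given: HeLa Kyoto cells synchronized by double thymidine or nocodazole block, proteins quantified by TMT10plex mass spectrometry, three independent biological replicates.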
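Wherever solubility change mitosis vs G1/S (difference of NP-40 vs SDS log2 ratios) is given: synchronized HeLa Kyoto cells (double thymidine block for G1/S, nocodazole release for mitosis), protein amounts in NP-40 versus SDS lysates quantified by mass spectrometry, three biological replicates.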
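Wherever solubility in G1/S (NP-40 vs SDS abundance) is given: HeLa Kyoto cells arrested at G1/S by double thymidine block, proteins quantified by TMT10plex mass spectrometry in mild NP-40 versus SDS extracts, three biological replicates.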
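Wherever thermal stability score vs G1/S (z-score of summed log2 fold changes over temperatures) is given: synchronized HeLa Kyoto cells, proteins quantified by TMT10plex mass spectrometry, three biological replicates, mitosis taken 0.5 h after nocodazole release, G1/S directly after double thymidine block.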

NDRG1, sequence (chain, as listed by the source): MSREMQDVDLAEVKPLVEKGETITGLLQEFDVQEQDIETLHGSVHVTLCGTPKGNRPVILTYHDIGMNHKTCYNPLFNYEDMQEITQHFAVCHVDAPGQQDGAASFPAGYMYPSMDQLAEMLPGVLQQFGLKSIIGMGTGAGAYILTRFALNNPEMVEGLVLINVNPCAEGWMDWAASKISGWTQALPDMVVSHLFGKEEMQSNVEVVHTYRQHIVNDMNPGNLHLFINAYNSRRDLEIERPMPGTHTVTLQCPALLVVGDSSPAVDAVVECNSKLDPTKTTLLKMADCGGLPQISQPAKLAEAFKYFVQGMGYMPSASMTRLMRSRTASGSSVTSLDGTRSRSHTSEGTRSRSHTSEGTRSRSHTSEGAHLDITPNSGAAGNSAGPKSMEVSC

| Substance | solubility change mitosis (log2) (HeLa Kyoto [1]) | thermal stability score (HeLa Kyoto [2]; [5]) | thermal stability score (HeLa Kyoto [2]; cell cycle stage: mitosis) | solubility in G1/S (log2) (HeLa Kyoto [3]) | melting temperature (HeLa Kyoto [4]; cell cycle stage: G1/S) [°C] | melting temperature (HeLa Kyoto [4]; cell cycle stage: mitosis) [°C] |
| --- | --- | --- | --- | --- | --- | --- |
| MTSLTQRSSGLVQRRTEASRNAADKERAAGGGAGSSEDDAQSRRDEQDDDDKGDSKETRLTLMEEVLLLGLKDREGYTSFWNDCISSGLRGCMLIELALRGRLQLEACGMRRKSLLTRKVICKSDAPTGDVLLDEALKHVKETQPPETVQNWIELLSGETWNPLKLHYQLRNVRERLAKNLVEKGVLTTEKQNFLLFDMTTHPLTNNNIKQRLIKKVQEAVLDKWVNDPHRMDRRLLALIYLAHASDVLENAFAPLLDEQYDLATKRVRQLLDLDPEVECLKANTNEVLWAVVAAFTK [GOLPH3] | -0.137 | 0.551 | -0.641 | 0.434 | 51.9 | 51.5 |
| MERQKRKADIEKGLQFIQSTLPLKQEEYEAFLLKLVQNLFAEGNDLFREKDYKQALVQYMEGLNVADYAASDQVALPRELLCKLHVNRAACYFTMGLYEKALEDSEKALGLDSESIRALFRKARALNELGRHKEAYECSSRCSLALPHDESVTQLGQELAQKLGLRVRKAYKRPQELETFSLLSNGTAAGVADQGTSNGLGSIDDIETDCYVDPRGSPALLPSTPTMPLFPHVLDLLAPLDSSRTLPSTDSLDDFSDGDVFGPELDTLLDSLSLVQGGLSGSGVPSELPQLIPVFPGGTPLLPPVVGGSIPVSSPLPPASFGLVMDPSKKLAASVLDALDPPGPTLDPLDLLPYSETRLDALDSFGSTRGSLDKPDSFMEETNSQDHRPPSGAQKPAPSPEPCMPNTALLIKNPLAATHEFKQACQLCYPKTGPRAGDYTYREGLEHKCKRDILLGRLRSSEDQTWKRIRPRPTKTSFVGSYYLCKDMINKQDCKYGDNCTFAYHQEEIDVWTEERKGTLNRDLLFDPLGGVKRGSLTIAKLLKEHQGIFTFLCEICFDSKPRIISKGTKDSPSVCSNLAAKHSFYNNKCLVHIVRSTSLKYSKIRQFQEHFQFDVCRHEVRYGCLREDSCHFAHSFIELKVWLLQQYSGMTHEDIVQESKKYWQQMEAHAGKASSSMGAPRTHGPSTFDLQMKFVCGQCWRNGQVVEPDKDLKYCSAKARHCWTKERRVLLVMSKAKRKWVSVRPLPSIRNFPQQYDLCIHAQNGRKCQYVGNCSFAHSPEERDMWTFMKENKILDMQQTYDMWLKKHNPGKPGEGTPISSREGEKQIQMPTDYADIMMGYHCWLCGKNSNSKKQWQQHIQSEKHKEKVFTSDSDASGWAFRFPMGEFRLCDRLQKGKACPDGDKCRCAHGQEELNEWLDRREVLKQKLAKARKDMLLCPRDDDFGKYNFLLQEDGDLAGATPEAPAAAATATTGE [ZC3H7B] | 0.118 | 1.16 | 1.26 | -0.354 | 48 | 47.6 |
| NDRG1 | 0.00645 | 1.68 | -0.0804 | 0.246 | 53.1 | 53.6 |
| MERAVPLAVPLGQTEVFQALQRLHMTIFSQSVSPCGKFLAAGNNYGQIAIFSLSSALSSEAKEESKKPVVTFQAHDGPVYSMVSTDRHLLSAGDGEVKAWLWAEMLKKGCKELWRRQPPYRTSLEVPEINALLLVPKENSLILAGGDCQLHTMDLETGTFTRVLRGHTDYIHCLALRERSPEVLSGGEDGAVRLWDLRTAKEVQTIEVYKHEECSRPHNGRWIGCLATDSDWMVCGGGPALTLWHLRSSTPTTIFPIRAPQKHVTFYQDLILSAGQGRCVNQWQLSGELKAQVPGSSPGLLSLSLNQQPAAPECKVLTAAGNSCRVDVFTNLGYRAFSLSF [THOC6] | 0.108 | -0.465 | -0.675 | -0.108 | 51.8 | 51.2 |
| MAMAEGERTECAEPPRDEPPADGALKRAEELKTQANDYFKAKDYENAIKFYSQAIELNPSNAIYYGNRSLAYLRTECYGYALGDATRAIELDKKYIKGYYRRAASNMALGKFRAALRDYETVVKVKPHDKDAKMKYQECNKIVKQKAFERAIAGDEHKRSVVDSLDIESMTIEDEYSGPKLEDGKVTISFMKELMQWYKDQKKLHRKCAYQILVQVKEVLSKLSTLVETTLKETEKITVCGDTHGQFYDLLNIFELNGLPSETNPYIFNGDFVDRGSFSVEVILTLFGFKLLYPDHFHLLRGNHETDNMNQIYGFEGEVKAKYTAQMYELFSEVFEWLPLAQCINGKVLIMHGGLFSEDGVTLDDIRKIERNRQPPDSGPMCDLLWSDPQPQNGRSISKRGVSCQFGPDVTKAFLEENNLDYIIRSHEVKAEGYEVAHGGRCVTVFSAPNYCDQMGNKASYIHLQGSDLRPQFHQFTAVPHPNVKPMAYANTLLQLGMM [PPP5C] | -0.207 | -0.0521 | -1.42 | 0.0833 | 52.2 | 51.6 |
| MAAPSAGSWSTFQHKELMAADRGRRILGVCGMHPHHQETLKKNRVVLAKQLLLSELLEHLLEKDIITLEMRELIQAKVGSFSQNVELLNLLPKRGPQAFDAFCEALRETKQGHLEDMLLTTLSGLQHVLPPLSCDYDLSLPFPVCESCPLYKKLRLSTDTVEHSLDNKDGPVCLQVKPCTPEFYQTHFQLAYRLQSRPRGLALVLSNVHFTGEKELEFRSGGDVDHSTLVTLFKLLGYDVHVLCDQTAQEMQEKLQNFAQLPAHRVTDSCIVALLSHGVEGAIYGVDGKLLQLQEVFQLFDNANCPSLQNKPKMFFIQACRGDETDRGVDQQDGKNHAGSPGCEESDAGKEKLPKMRLPTRSDMICGYACLKGTAAMRNTKRGSWYIEALAQVFSERACDMHVADMLVKVNALIKDREGYAPGTEFHRCKEMSEYCSTLCRHLYLFPGHPPT [CASP2] | -0.0504 | 0.766 | 3.33 | 0.0545 | 50.2 | 51.5 |
| LSM14A | -0.186 | -0.955 | -1.78 | 0.131 | 51.8 | 51.6 |
| MSLHGKRKEIYKYEAPWTVYAMNWSVRPDKRFRLALGSFVEEYNNKVQLVGLDEESSEFICRNTFDHPYPTTKLMWIPDTKGVYPDLLATSGDYLRVWRVGETETRLECLLNNNKNSDFCAPLTSFDWNEVDPYLLGTSSIDTTCTIWGLETGQVLGRVNLVSGHVKTQLIAHDKEVYDIAFSRAGGGRDMFASVGADGSVRMFDLRHLEHSTIIYEDPQHHPLLRLCWNKQDPNYLATMAMDGMEVVILDVRVPCTPVARLNNHRACVNGIAWAPHSSCHICTAADDHQALIWDIQQMPRAIEDPILAYTAEGEINNVQWASTQPDWIAICYNNCLEILRV [DCAF7] | -0.147 | 0.282 | -1.1 | -0.0563 | 52.2 | 52.5 |
| MSTAQSLKSVDYEVFGRVQGVCFRMYTEDEARKIGVVGWVKNTSKGTVTGQVQGPEDKVNSMKSWLSKVGSPSSRIDRTNFSNEKTISKLEYSNFSIRY [ACYP2] | -0.0326 | -0.285 | -1.11 | 0.215 | 53.7 | 53.4 |
| MSTAREQPIFSTRAHVFQIDPATKRNWIPAGKHALTVSYFYDATRNVYRIISIGGAKAIINSTVTPNMTFTKTSQKFGQWADSRANTVYGLGFASEQHLTQFAEKFQEVKEAARLAREKSQDGGELTSPALGLASHQVPPSPLVSANGPGEEKLFRSQSADAPGPTERERLKKMLSEGSVGEVQWEAEFFALQDSNNKLAGALREANAAAAQWRQQLEAQRAEAERLRQRVAELEAQAASEVTPTGEKEGLGQGQSLEQLEALVQTKDQEIQTLKSQTGGPREALEAAEREETQQKVQDLETRNAELEHQLRAMERSLEEARAERERARAEVGRAAQLLDVSLFELSELREGLARLAEAAP [HOMER3] | 0.0389 | -1.1 | -1.09 | 0.263 | 48.7 | 51.7 |
| MSFDPNLLHNNGHNGYPNGTSAALRETGVIEKLLTSYGFIQCSERQARLFFHCSQYNGNLQDLKVGDDVEFEVSSDRRTGKPIAVKLVKIKQEILPEERMNGQVVCAVPHNLESKSPAAPGQSPTGSVCYERNGEVFYLTYTPEDVEGNVQLETGDKINFVIDNNKHTGAVSARNIMLLKKKQARCQGVVCAMKEAFGFIERGDVVKEIFFHYSEFKGDLETLQPGDDVEFTIKDRNGKEVATDVRLLPQGTVIFEDISIEHFEGTVTKVIPKVPSKNQNDPLPGRIKVDFVIPKELPFGDKDTKSKVTLLEGDHVRFNISTDRRDKLERATNIEVLSNTFQFTNEAREMGVIAAMRDGFGFIKCVDRDVRMFFHFSEILDGNQLHIADEVEFTVVPDMLSAQRNHAIRIKKLPKGTVSFHSHSDHRFLGTVEKEATFSNPKTTSPNKGKEKEAEDGIIAYDDCGVKLTIAFQAKDVEGSTSPQIGDKVEFSISDKQRPGQQVATCVRLLGRNSNSKRLLGYVATLKDNFGFIETANHDKEIFFHYSEFSGDVDSLELGDMVEYSLSKGKGNKVSAEKVNKTHSVNGITEEADPTIYSGKVIRPLRSVDPTQTEYQGMIEIVEEGDMKGEVYPFGIVGMANKGDCLQKGESVKFQLCVLGQNAQTMAYNITPLRRATVECVKDQFGFINYEVGDSKKLFFHVKEVQDGIELQAGDEVEFSVILNQRTGKCSACNVWRVCEGPKAVAAPRPDRLVNRLKNITLDDASAPRLMVLRQPRGPDNSMGFGAERKIRQAGVID [CSDE1] | -0.111 | 1.75 | 4.08 | -0.15 | 47.6 | 48.4 |
| MAAAFEASGALAAVATAMPAEHVAVQVPAPEPTPGPVRILRTAQDLSSPRTRTGDVLLAEPADFESLLLSRPVLEGLRAAGFERPSPVQLKAIPLGRCGLDLIVQAKSGTGKTCVFSTIALDSLVLENLSTQILILAPTREIAVQIHSVITAIGIKMEGLECHVFIGGTPLSQDKTRLKKCHIAVGSPGRIKQLIELDYLNPGSIRLFILDEADKLLEEGSFQEQINWIYSSLPASKQMLAVSATYPEFLANALTKYMRDPTFVRLNSSDPSLIGLKQYYKVVNSYPLAHKVFEEKTQHLQELFSRIPFNQALVFSNLHSRAQHLADILSSKGFPAECISGNMNQNQRLDAMAKLKHFHCRVLISTDLTSRGIDAEKVNLVVNLDVPLDWETYMHRIGRAGRFGTLGLTVTYCCRGEEENMMMRIAQKCNINLLPLPDPIPSGLMEECVDWDVEVKAAVHTYGIASVPNQPLKKQIQKIERTLQIQKAHGDHMASSRNNSVSGLSVKSKNNTKQKLPVKSHSECGIIEKATSPKELGCDRQSEEQMKNSVQTPVENSTNSQHQVKEALPVSLPQIPCLSSFKIHQPYTLTFAELVEDYEHYIKEGLEKPVEIIRHYTGPGDQTVNPQNGFVRNKVIEQRVPVLASSSQSGDSESDSDSYSSRTSSQSKGNKSYLEGSSDNQLKDSESTPVDDRISLEQPPNGSDTPNPEKYQESPGIQMKTRLKEGASQRAKQSRRNLPRRSSFRLQTEAQEDDWYDCHREIRLSFSDTYQDYEEYWRAYYRAWQEYYAAASHSYYWNAQRHPSWMAAYHMNTIYLQEMMHSNQ [DDX20] | 0.084 | -0.14 | 3.36 | -0.119 | 47.5 | 48.8 |
| MREIVHIQAGQCGNQIGAKFWEVISDEHGIDPTGTYHGDSDLQLDRISVYYNEATGGKYVPRAILVDLEPGTMDSVRSGPFGQIFRPDNFVFGQSGAGNNWAKGHYTEGAELVDSVLDVVRKEAESCDCLQGFQLTHSLGGGTGSGMGTLLISKIREEYPDRIMNTFSVVPSPKVSDTVVEPYNATLSVHQLVENTDETYCIDNEALYDICFRTLKLTTPTYGDLNHLVSATMSGVTTCLRFPGQLNADLRKLAVNMVPFPRLHFFMPGFAPLTSRGSQQYRALTVPELTQQVFDAKNMMAACDPRHGRYLTVAAVFRGRMSMKEVDEQMLNVQNKNSSYFVEWIPNNVKTAVCDIPPRGLKMAVTFIGNSTAIQELFKRISEQFTAMFRRKAFLHWYTGEGMDEMEFTEAESNMNDLVSEYQQYQDATAEEEEDFGEEAEEEA [TUBB] | -0.117 | 0.696 | -1.83 | 0.245 | 56.4 | 54.4 |
| MAAPVDLELKKAFTELQAKVIDTQQKVKLADIQIEQLNRTKKHAHLTDTEIMTLVDETNMYEGVGRMFILQSKEAIHSQLLEKQKIAEEKIKELEQKKSYLERSVKEAEDNIREMLMARRAQ [PFDN1] | 0.291 | -5.42 | -7.79 | 0.242 | 52.9 | 52.4 |
